Tested on: transplanted liver cancer H22
Assay: Example 13: different administration orders of interferon and gemcitabine, transplanted liver cancer H22 in mice
Format: in vivo, BALB/c mice
Settings: PEG-mIFN-α4 only, 1 microgram per mouse s.c. once a week
Description: PEG-mIFN-α4 was administered by subcutaneous injection on the back of the neck, with a dose of 1 microgram per mouse. The administration began on the day after grouping. In the PEG-mIFN-α4 only group, PEG-mIFN-α4 was administered once a week. In the PEG-mIFN-α4 combined with gemcitabine (administered at the same time) group, PEG-mIFN-α4 and gemcitabine were administered on the same day, once a week. In the PEG-mIFN-α4 combined with gemcitabine (PEG-mIFN-α4 was administered 72 hours after gemcitabine) group, gemcitabine was given 3 days before PEG-mIFN-α4, once a week. PEG-mIFN-α4 combined with gemcitabine (gemcitabine was given 72 hours after PEG-mIFN-α4) group, PEG-mIFN-α4 was given first, and gemcitabine was given 3 days after, once a week. In the normal saline control group, an equal volume of normal saline was given. Gemcitabine was injected intraperitoneally at a dose of 60 mg/kg.
SAS 9.4 software was used to compare the differences in tumor incidence between groups, and the statistical tests were all two-sided tests.
The tumor incidence of each group was calculated based on the tumor volume greater than or equal to 62.5 mm^, which is determined as positive for tumor occurrence. […] Mice determined to be negative for tumor development were confirmed by dissection, and no solid tumor was found in the axilla. […]

B1: PEG-mIFN-α4: deglycosylated recombinant mouse interferon α4 modified with 40 kD Y-type polyethylene glycol succinimide ester (YPEG-NHS); SEQ ID NO: 6 (protein)
chain: CDLPHTYNLGNKRALTVLEEMRRLPPLSCLKDRKDFGFPLEKVDNQQIQKAQAILVLRDLTQQILNLFTSKDLSATWNATLLDSFCNDLHQQLNDLKACVMQEPPLTQEDSLLAVRTYFHRITVYLRKKKHSLCAWEVIRAEVWRALSSSTNLLARLSEEKE
modifications: 40 kD Y-type PEG; deglycosylated; peginterferon murine alpha 4
B1 was tested, and the “Median survival period (time after tumor inoculation, day)” value (by day 151) was 38.0 days and the tumor incidence (day 151 after tumor inoculation, tumor volume ≥62.5 positive) was 100.0%.
